Results from publication PMC10112228.

Biological target: His-CcpA (nonphosphorylated) (Streptococcus pneumoniae D39) (UniProt A0A0H2ZQ65)
Assay: EMSA

CTTTCTGTGAACGTGATTTTTTAAAACGTCTACTCATGATTAACACCTATACATTGAACATCTTACGATTATATCACTTTTTTACGGTAATGTCTACACCTTTTTTCACTATCTGCATCTTTAAGTATCTTAGTAGACTTCCCGCGAACCAAAAATATAGTAAAATGAAATAAGAACATGACAAATTGATCAGGACAGTCAAATCGTTTTCTAACAATATTTTAGAAGCAGATGTGTACTATTCTAGTTTCAATATAATATAGTACACAATGTGGTATAATCTTTTT (double strand) [Pcps2A (-250/+35)]
binding: binds
